The target in one assay is HLA-B*15:01. The experiment in a line: IEDB peptide-MHC binding, purified MHC/competitive/fluorescence; filed as Kd, often an IC50 or EC50 that approximates it; ≥ and ≤ were set here for values at or beyond the usual limits of such assays.
The target in a further assay is HLA-B*40:02. The experiment in a line: IEDB peptide-MHC binding, purified MHC/competitive/radioactivity; filed as Kd, often an IC50 or EC50 that approximates it; ≥ and ≤ were set here for values at or beyond the usual limits of such assays.
A further assay deals with HLA-B*18:01. The assay is described as above.
Another assay concerns the target HLA-B*45:01. The assay is described as above.
The next assay deals with HLA-B*44:02. The description is as above.
Another assay addresses HLA-B*44:03. The assay is described as above.
A further assay has as its target HLA-B*40:01. The description is as above.
Assay [1] concerns the target HLA-A*02:01. The assay is described as above.
For a further assay, the target named is HLA-A*68:02. The description is as above. The conditions noted are these: source organism: Homo sapiens.
In the next assay the target is HLA-A*02:06. The description is as above.
A further assay deals with HLA-A*02:03. Described as above.
A further assay has as its target HLA-A*02:02. Described as above. The conditions noted are these: source organism: Vaccinia virus WR.
The target of assay [2] is HLA-A*02:01. The experiment in a line: IEDB peptide-MHC binding, purified MHC/competitive/fluorescence; filed as Kd, often an IC50 or EC50 that approximates it; ≥ and ≤ were set here for values at or beyond the usual limits of such assays. The conditions noted are these: source organism: Influenza A virus (A/chicken/California/1002a/00(H6N2)).
Another assay has as its target HLA-A*26:01. Described as above. The conditions noted are these: source organism: Bacillus anthracis str. A2012.
Setting [3] is: source organism: SARS coronavirus Tor2.
The mark [4] stands for this setting: source organism: Lymphocytic choriomeningitis virus (strain Armstrong).
The mark [5] stands for this setting: source organism: Mammarenavirus machupoense.
Where [6] appears, read: source organism: Vaccinia virus WR.
Where [7] appears, read: source organism: Mammarenavirus juninense.

Some results are limits rather than exact numbers.

For orientation: Kd means the constant that tells how readily two partners part at equilibrium. As for AVDLSHFL, the Kd in the assay with HLA-B*15:01 (source organism: Chloroflexus aurantiacus J-10-fl) is not below 20 µM.

Regarding EEVAIILASF, the dissociation constant Kd with HLA-B*40:02 (setting [3]) stood at 406 nM; with HLA-B*18:01 (setting [3]) it was 108 nM; with HLA-B*45:01 (setting [3]), 1390 nM; with HLA-B*44:02 (setting [3]) it was 77.6 nM; with HLA-B*44:03 (setting [3]) it was 19.2 nM; with HLA-B*40:01 (setting [3]), 3.43 µM.

In the case of NDFVSDADST, the Kd is not below 70800 nM with HLA-B*40:02 (setting [3]); not below 70500 nM with HLA-B*18:01 (setting [3]); 2600 nM with HLA-B*45:01 (setting [3]); not below 32700 nM with HLA-B*44:02 (setting [3]); not below 70100 nM with HLA-B*44:03 (setting [3]); not below 69.6 µM with HLA-B*40:01 (setting [3]).

For the sequence FENAILSMTI, the Kd with HLA-B*40:02 (setting [4]) amounted to 6.31 nM; with HLA-B*18:01 (setting [4]), 126 nM; with HLA-B*45:01 (setting [4]) it was 3020 nM; with HLA-B*44:02 (setting [4]), 237 nM; in the assay with HLA-B*44:03 (setting [4]), 388 nM; with HLA-B*40:01 (setting [4]), 1.45 µM.

For the sequence PENQEDPLVL, the equilibrium dissociation constant (Kd) with HLA-B*40:02 (setting [5]) was not below 70800 nM; with HLA-B*18:01 (setting [5]), not below 70400 nM; with HLA-B*45:01 (setting [5]), not below 70000 nM; in the assay with HLA-B*44:02 (setting [5]), not below 70200 nM; in the assay with HLA-B*44:03 (setting [5]), not below 70100 nM; with HLA-B*40:01 (setting [5]), not below 39.5 µM.

Take ELEALKTEL: the dissociation constant (Kd) with HLA-A*02:01 [1] (source organism: Homo sapiens) was not below 54300 nM; with HLA-A*68:02 it was 15.9 µM; with HLA-A*02:06 (source organism: Homo sapiens), not below 64600 nM.

Turning to ELRLLIHQSL, the Kd in the assay with HLA-A*02:01 [1] (source organism: Homo sapiens) was determined as 1510 nM; with HLA-A*68:02, 1.13 µM; in the assay with HLA-A*02:03 (source organism: Homo sapiens), 1580 nM.

For the sequence GDYFVLTSHT, the Kd in the assay with HLA-B*40:02 (setting [3]) was not below 37700 nM; in the assay with HLA-B*18:01 (setting [3]) it was not below 70500 nM; in the assay with HLA-B*45:01 (setting [3]), not below 70000 nM; with HLA-B*44:02 (setting [3]) it was not below 50900 nM; with HLA-B*44:03 (setting [3]), not below 22600 nM; in the assay with HLA-B*40:01 (setting [3]) it was not below 69.6 µM.

For the sequence RIEDMFLTSV, the Kd with HLA-A*02:02 came to 548 nM; with HLA-A*02:01 [1] (setting [6]), 48 nM; with HLA-A*02:03 (setting [6]), 71 nM; in the assay with HLA-A*02:06 (setting [6]), 168 nM.

QALTDLGLI: the Kd in the assay with HLA-A*02:01 [1] (source organism: Lassa virus GA391) stood at 3570 nM.

As for ILRHSTAHL, in the assay with HLA-B*15:01 (source organism: Bacillus anthracis str. A0488), the equilibrium dissociation constant (Kd) worked out at 0.142 µM.

On to MELPTGVHA, for which the Kd was 2740 nM in the assay with HLA-B*40:02 (setting [3]); 18000 nM with HLA-B*18:01 (setting [3]); 78.9 nM with HLA-B*45:01 (setting [3]); 7800 nM in the assay with HLA-B*44:02 (setting [3]); 13800 nM with HLA-B*44:03 (setting [3]); not below 24.9 µM in the assay with HLA-B*40:01 (setting [3]).

For RIMAWTVVNSI, the Kd in the assay with HLA-A*02:01 [2] is not above 1 nM.

For MDGIQYGRSG, the equilibrium dissociation constant (Kd) is not below 70800 nM with HLA-B*40:02 (setting [3]); not below 70500 nM with HLA-B*18:01 (setting [3]); 10900 nM with HLA-B*45:01 (setting [3]); not below 49900 nM with HLA-B*44:02 (setting [3]); not below 58600 nM in the assay with HLA-B*44:03 (setting [3]); not below 69.6 µM with HLA-B*40:01 (setting [3]).

With GLSRPLLRL, the dissociation constant (Kd) with HLA-A*02:01 [1] (source organism: Hepatitis B virus subtype ayw) was not below 5000 nM.

As for EELIKLRFWF, the Kd in the assay with HLA-B*40:02 (setting [7]) is 10400 nM; with HLA-B*18:01 (setting [7]), 748 nM; in the assay with HLA-B*45:01 (setting [7]) it was 9880 nM; with HLA-B*44:02 (setting [7]), 680 nM; with HLA-B*44:03 (setting [7]), 132 nM; with HLA-B*40:01 (setting [7]), not below 36.7 µM.

Consider QNGALAINTF, for which, in the assay with HLA-B*15:01 (source organism: Human herpesvirus 4 type 2), the Kd was not below 20 µM.

LEVKFNAPA: the dissociation constant Kd in the assay with HLA-B*40:02 (setting [3]) is 9.33 nM; with HLA-B*18:01 (setting [3]) it was 111 nM; with HLA-B*45:01 (setting [3]) it was 4.46 nM; with HLA-B*44:02 (setting [3]), not below 21300 nM; with HLA-B*44:03 (setting [3]), 6010 nM; with HLA-B*40:01 (setting [3]), 5.31 µM.

Regarding QEADNMITEM, the Kd with HLA-B*40:02 (setting [4]) turned out to be 124 nM; with HLA-B*18:01 (setting [4]) it was 1470 nM; with HLA-B*45:01 (setting [4]), 1190 nM; with HLA-B*44:02 (setting [4]), 224 nM; in the assay with HLA-B*44:03 (setting [4]), 813 nM; with HLA-B*40:01 (setting [4]), 5.36 µM.

Consider NEKVAGFAKF, for which the Kd with HLA-B*40:02 (setting [3]) was not below 70800 nM; with HLA-B*18:01 (setting [3]) it was 1560 nM; with HLA-B*45:01 (setting [3]), 18800 nM; in the assay with HLA-B*44:02 (setting [3]), 37.9 nM; with HLA-B*44:03 (setting [3]), 527 nM; with HLA-B*40:01 (setting [3]), not below 53.7 µM.

The sequence EISSIISLM gave a dissociation constant (Kd) in the assay with HLA-A*26:01 of 9.8 nM.

For the sequence RECYAQRFYL, the dissociation constant Kd came out at 5.55 nM with HLA-B*40:02 (setting [5]); 137 nM with HLA-B*18:01 (setting [5]); 1440 nM with HLA-B*45:01 (setting [5]); 525 nM with HLA-B*44:02 (setting [5]); 250 nM with HLA-B*44:03 (setting [5]); 9.58 µM with HLA-B*40:01 (setting [5]).

The values above are taken from the Immune Epitope Database (IEDB).
